In test [1] the target is 16:0 acyl-ACP.
Test [2] concerns the target bay thioesterase triple mutant M197R/R199H/T231K (California bay (Umbellularia californica)). As to the kind of experiment: inhibition of 14:0-ACP thioesterase activity; 25 µM cold 12:0-ACP against 5 µM 14C labeled 14:0-ACP as competitor.
Test [3] addresses California bay (Umbellularia californica) C12 preferring acyl-ACP thioesterase, wild type, mature protein from pCGN3823 (California bay (Umbellularia californica)). The test is described as above.
Test [4] concerns the target bay thioesterase triple mutant M197R/R199H/T231K (California bay (Umbellularia californica)). As to the kind of experiment: inhibition of 14:0-ACP thioesterase activity; 5 µM cold 12:0-ACP against 5 µM 14C labeled 14:0-ACP as competitor.
Test [5] concerns the target California bay (Umbellularia californica) C12 preferring acyl-ACP thioesterase, wild type, mature protein from pCGN3823 (California bay (Umbellularia californica)). The test is described as above.
Test [6] deals with bay thioesterase triple mutant M197R/R199H/T231K (California bay (Umbellularia californica)). As to the kind of experiment: inhibition kinetics of thioesterase activity; slope inhibition constant of 12:0-ACP with 14:0-ACP as varied substrate.
The target in test [7] is California bay (Umbellularia californica) C12 preferring acyl-ACP thioesterase, wild type, mature protein from pCGN3823 (California bay (Umbellularia californica)). The test is described as above.
The target in test [8] is 14:0-ACP.
In test [9] the target is 16:0 acyl-ACP. This is another data set of the same source.
Test [10] addresses 18:0 acyl-ACP.
Test [11] addresses 18:0 acyl-ACP. The source holds these as a separate data set.
Test [12] has as its target 12:0-ACP.
Test [13] addresses 14:0-ACP. This is another data set of the same source.
The target of test [14] is 12:0-ACP. This is another data set of the same source.
The target in test [15] is 14:0-ACP. This is another data set of the same source.
Test [16] addresses acyl-ACP substrates (chain length not stated for this assay).
Test [17] concerns the target 12:0-ACP. This is another data set of the same source.

Substitutions are numbered along the chain they refer to. Names and notes keep the numbering of the source.

In turn, “Cuphea palustris Class II acyl-ACP thioesterase CpFatB2 (MCT34), mature region as lacZ fusion protein (MCT34LZ) (enzyme)” registered an acyl-ACP thioesterase activity (% of the C14-ACP activity) with 16:0 acyl-ACP [1] of 30.
For orientation: Ki means a measure of affinity in units of concentration, obtained from inhibition or displacement. A lower Ki goes with tighter binding. In the case of 12:0-ACP, the Inhibition (%) came out at 76% in [2], 78% in [3], 48% in test [4] and 53% in [5]. For the same molecule, the Ki in test [6] was 11.6 µM; in test [7], 10.2 µM.
On to “Cuphea palustris Class II acyl-ACP thioesterase CpFatB1 (MCT29), mature region as lacZ fusion protein (MCT29LZ) (enzyme)”, for which, in the test with 14:0-ACP [8], the acyl-ACP thioesterase activity (% of the C8-ACP activity) is 10.
Turning to “mangosteen (Garcinia mangifera) Class I acyl-ACP thioesterase GarmFatA1, wild type (enzyme)”, the Acyl-ACP Thioesterase activity (cpm/min) amounted to 87400 cpm/min with 18:1 acyl-ACP, 4370 cpm/min with 16:0 acyl-ACP [9] and 23900 cpm/min in the test with 18:0 acyl-ACP [10].
Turning to “mangosteen GarmFatA1 mutant D261K (enzyme)”, in the test with 18:0 acyl-ACP [11], the thioesterase activity, preference 18:0/18:1 (% (18:0/18:1)) worked out at 35.

B1: California bay (Umbellularia californica) C12 preferring acyl-ACP thioesterase, wild type, mature protein from pCGN3823 (enzyme)
chain: LEWKPKPKLPQLLDDHFGLHGLVFRRTFAIRSYEVGPDRSTSILAVMNHMQEATLNHAKSVGILGDGFGTTLEMSKRDLMWVVRRTHVAVERYPTWGDTVEVECWIGASGNNGMRRDFLVRDCKTGEILTRCTSLSVLMNTRTRRLSTIPDEVRGEIGPAFIDNVAVKDDEIKKLQKLNDSTADYIQGGLTPRWNDLDVNQHVNNLKYVAWVFETVPDSIFESHHISSFTLEYRRECTRDSVLRSLTTVSGGSSEAGLVCDHLLQLEGGSEVLRARTEWRPKLTDSFRGISVIPAEPRV
Take B1: the Km,app with 12:0-ACP [12] came out at 1.9 µM; with 14:0-ACP [13] it was 6.4 µM.

B2: bay thioesterase mutant R322M/R327Q (enzyme)
chain: B1 chain with R239M, R244Q
As to B2, the thioesterase specific activity (fold decrease) in the test with 12:0-ACP [14] amounted to 100; with 14:0-ACP [15] it was 30.

B3: bay thioesterase triple mutant M197R/R199H/T231K (enzyme)
chain: B1 chain with M114R, R116H, T148K
As to B3, the Km,app with 14:0-ACP [13] came to 2.3 µM.

B4: bay thioesterase mutant C320S (enzyme)
chain: B1 chain with C237S
The molecule B4 displayed a thioesterase activity (% of the wild-type activity) in [16] of 80.

B5: bay thioesterase mutant M197R/R199H (enzyme)
chain: B1 chain with M114R, R116H
Molecule B5 displayed a thioesterase activity with 12:0-ACP [17] of 7 fold reduced.

B6: bay thioesterase mutant R327Q (enzyme)
chain: B1 chain with R244Q
B6: the thioesterase specific activity (fold decrease) stood at 100 with 12:0-ACP [14] and 30 with 14:0-ACP [15].
